Measured values from the Human Domainome abundance scans (Beltran et al. 2025).

B1: Segment polarity protein dishevelled homolog DVL-3, residues 2 to 81; numbered along this chain, Q92997 (parent)
chain: GETKIIYHLDGQETPYLVKLPLPAERVTLADFKGVLQRPSYKFFFKSMDDDFGVVKEEISDDNAKLPCFNGRVVSWLVSA

Variants of: B1
Assay: abundance fitness (aPCA) (normalised: wild type 0, dead -1); higher = more abundant; growth selection in yeast, the domain comes from the species named
Settings: Homo sapiens

Abundance fitness, by site and new letter:
Y41: D -0.673; T -0.511; P -0.538; K -0.787; S -0.72; R -0.741; E -0.486; L -0.624; G -0.496; C -0.227; A -0.431; W -0.331; V -0.388; N -0.727; H -0.304; Q -0.403
S40: C 0.045; F -0.157; G 0.116; P -0.261; M 0.098; Y 0.121; D 0.282; E 0.003; Q 0.004; R -0.254; A -0.024; K -0.091; W -0.1; L -0.258; V 0.134; N 0.167
D51: A 0.022; F -0.198; R 0.224; M -0.279; Q 0.158; L -0.32; G -0.004; E -0.074; V -0.113; I -0.202; K 0.197; T 0.166; S 0.072; W -0.824; Y -0.224; P 0.057; N 0.25; C -0.191; H 0.058
G34: V -0.371; T -0.016; W -0.649; R 0.156; Y -0.388
F44: H -0.807; N -0.653; L -0.351; R -0.753; K -0.818; I -0.624; Y -0.015; D -0.749; P -0.685; V -0.756; G -0.754; W -0.244; A -0.614; C -0.689; E -0.683; Q -0.745
F43: W -0.58; M -0.291; L -0.693; D -0.64; Q -0.909; V -0.658; H -0.799; C -0.391; T -0.695; K -0.644; P -1.12; N -0.565; A -0.552; G -0.753; I -0.611
S47: V 0.269; C 0.251; H -0.207; I 0.336; M 0.415; P -0.675; E -0.726; L 0.024; G -0.336; Q -0.212; T 0.325; A -0.051; D -0.658; K 0.324; N 0.092; R 0.34; W -0.519; F 0.011
R38: K 0.147; W -0.099; N 0.255; Q -0.069; L -0.114; P -0.341; C 0.139; F -0.142; V -0.024; T 0.187; A 0.009; G -0.076; S 0.159; H 0.001; I -0.181; M 0.032; Y -0.188; D 0.284; E 0.13
F52: T 0.183; V 0.048; A 0.263; I 0.036; Q 0.268; S 0.37; Y -0.063; E 0.335; K 0.604; M 0.156; C 0.351; H 0.32; R 0.618; L 0.249; G 0.781
L36: H -0.988; M -0.465; T -0.824; D -0.37; E -0.728; A -0.785; R -0.528; P -0.244; C -0.563; F 0.097; G -0.993; S -0.629; V -0.187; K -0.725; Q -0.668; N -0.522
K42: P -0.763; R 0.158; M -0.659; F 0.052; E -0.636; Q -0.044; C -0.624; L -0.86; T -0.356; Y -0.957; N -0.421; A -0.602; D -0.953; V -0.841; W -0.783; H -0.043; S -0.716
G53: T 0.092; V -0.005; K 0.482; S 0.153; C 0.2; R 0.382; Y 0.223; M -0.032; Q 0.327; F -0.362; P -0.211; A 0.096; N 0.563; E 0.209; W -0.458; L -0.321; H 0.358; I -0.501
Q37: E 0.048; W -0.483; Y -0.1; G 0.048; D 0.225; N 0.122; V -0.124; I -0.179; C -0.078; L -0.154; T -0.067; H -0.073; P 0.092; F -0.433; A -0.1; M -0.048; K 0.165
F45: A -0.533; T -0.596; D -0.775; S -0.856; I -0.969; L -0.775; K -0.934; E -0.379; W -0.605; M -0.868; R -0.669; H -0.864; C -0.569; P -0.581; Q -0.669; N -0.407; V -0.755
M48: I -0.13; S 0.283; C 0.133; T 0.296; L -0.074; W 0.017; Y 0.175; A 0.287; E 0.09; H 0.056; K 0.039; V 0.125; N 0.567; G 0.316; F -0.121; R 0.204; Q 0.089
K46: Q 0.165; N -0.046; W -0.227; E 0.277; D -0.061; T -0.392; P -0.437; L -0.138; R -0.08; I -0.189; F -0.488; H -0.132; S -0.196; G -0.223; Y -0.401; M -0.081; C -0.068; V -0.407
V54: E 0.192; A 0.005; G -0.127; F 0.136; D 0.168; I 0.175; C 0.01; H 0.002
P39: G 0.062; Y -0.494; R -0.037; T 0.062; I -0.066; N 0.061; A -0.14; C -0.306; W -0.466; Q 0.11; H 0.073; V -0.106; D 0.357; K 0.194; M 0.006; S 0.051; E 0
D49: A 0.018; K 0.203; N 0.296; W -0.461; G -0.046; C 0.013; I -0.231; L -0.564; E -0.038; F -0.488; S 0.234; Q -0.053; V -0.364; M -0.402; T 0.111; H 0.136
D50: S 0.089; W -0.445; I -0.421; M -0.329; Q -0.041; L -0.475; F -0.645; C -0.263; H -0.188; P -0.016; A -0.15; G 0.069; E -0.184; Y -0.287; K 0.131; N -0.079; T -0.074
V35: P -0.869; A 0.173; I -0.141; L -0.164; Y -0.212; G -0.842; M -0.25; K -0.365; N -0.375; E -0.468; T -0.167; H -0.301; S -0.257; Q -0.218; D -0.892; C -0.074; F -0.031
